The source of these data is US7901879B2, “Lactoferrin in the treatment of malignant neoplasms and other hyperproliferative diseases” (Agennix Incorporated, priority 2002, dated 2011).

The assay relates to IL-18. The assay can be described thus: IL-18 levels in small intestine and serum after oral rhLF or bLF (cytokine ELISA). Type of assay: in vivo, mice. How it is done: Recombinant human lactoferrin and bovine lactoferrin were orally administered to mice, and the production of IL-18 in the small intestine was measured.
Mice were treated for three days daily with 65 mg/kg/day of rhLF, 300 mg/kg/day of rhLF or 300 mg/kg/day of bLF. For a control, mice were only administered the pharmaceutical carrier. Twenty-four hours following administration of the LF or control for 3 days, animals were weighed and blood and serum were collected. Serum was used for cytokine ELISA assays.
Also, at these time points, animals were sacrificed and the small intestinal tissue was removed for further analysis. Small intestinal epithelium was homogenized using a lysis buffer consisting of PBS, 1% Nonidet P-40, 0.5% sodium deoxycholate, and 0.1% sodium dodecyl sulphate containing 10 μg/ml PhenylMetheylsulfonyl fluoride. Homogenate was centrifuged at 15,000 rpm for 10 minutes and the supernatant stored at −80 C. till it was tested for IL-18 levels.

Setting [1] is: oral 300 mg/kg/day for three days, 24 h after last dose.
The mark [2] stands for this setting: oral, rhLF at both doses, bLF 300 mg/kg/day.

B1: bovine lactoferrin (protein, UniProt P24627 20-708, looked up)
Lactotransferrin: APRKNVRWCTISQPEWFKCRRWQWRMKKLGAPSITCVRRAFALECIRAIAEKKADAVTLDGGMVFEAGRDPYKLRPVAAEIYGTKESPQTHYYAVAVVKKGSNFQLDQLQGRKSCHTGLGRSAGWIIPMGILRPYLSWTESLEPLQGAVAKFFSASCVPCIDRQAYPNLCQLCKGEGENQCACSSREPYFGYSGAFKCLQDGAGDVAFVKETTVFENLPEKADRDQYELLCLNNSRAPVDAFKECHLAQVPSHAVVARSVDGKEDLIWKLLSKAQEKFGKNKSRSFQLFGSPPGQRDLLFKDSALGFLRIPSKVDSALYLGSRYLTTLKNLRETAEEVKARYTRVVWCAVGPEEQKKCQQWSQQSGQNVTCATASTTDDCIVLVLKGEADALNLDGGYIYTAGKCGLVPVLAENRKSSKHSSLDCVLRPTEGYLAVAVVKKANEGLTWNSLKDKKSCHTAVDRTAGWNIPMGLIVNQTGSCAFDEFFSQSCAPGADPKSRLCALCAGDDQGLDKCVPNSKEKYYGYTGAFRCLAEDVGDVAFVKNDTVWENTNGESTADWAKNLNREDFRLLCLDGTRKPVTEAQSCHLAVAPNHAVVSRSDRAAHVKQVLLHQQALFGKNGKNCPDKFCLFKSETKNLLFNDNTECLAKLGGRPTYEEYLGTEYVTAIANLKKCSTSPLLEACAFLTR
In the case of B1, under “oral 300 mg/kg”, the “IL-18 Intestinal Extract % Increase Over Control” value is listed as 373% and the “IL-18 Serum % Increase Over Control” value is given as −5%. Under setting [1], the “IL-18 Intestinal Extract” value is 4,515 pg and the “IL-18 Serum” value was 134 pg. In addition, under setting [2], the “effect on amount of IL-18 in the intestinal extract” value was “lesser increase” and the “effect on amount of IL-18 in the serum” value is listed as “did not increase”.
